B1: HDV Ribozyme (parent)
chain: GGCCGGCAUGGUCCCAGCCUCCUCGCUGGCGCCGGCUGGGCAACAUUCCGAGGGGACCGUCCCCUCGGUAAUGGCGAAUGGGACCCA

Variants of: B1
Assay: self-cleavage, relative activity (ratio to wild type); higher = more cleavage; co-transcriptional

Variant	self-cleavage
A16U C57U	0.831
C15A U79G	0.831
C15U G54A	0.776
C15U G54C	1
A16U G35C	0.128
A16C C84U	0.727
C15U C36A	0.208
A16C C22G	0.0426
A16G C57A	1.18
A16U A78G	0.332
C15U G31U	0.248
C15U G31C	0.208
C15G G54U	0.59
A16G C75A	0.122
C15A G52U	0.844
C15A U69A	0.506
C15A U69G	0.492
C15A G31U	0.0339
C15G G39U	0.128
A16C U60C	0.369
A16C U60A	1.11
C15U G73A	0.302
C15U G73C	0.429
A16U U47G	0.692

Variant	self-cleavage
A16G C66U	0.988
A16U A42C	0.262
A16C A87G	0.769
C15U G76U	1.2
C15G G74U	0.0875
A16C C26U	0.886
A16C C26A	0.831
A16G G73U	0.391
A16C U27G	0.138
A16G G31A	0.46
C15U A83G	0.45
C15U A83U	0.26
C15U G34C	0.268
C15U G34U	0.293
G17A C18U	0.106
G17A C18A	0.252
C15G A16G	0.665
C15A G29A	0.117
A16C A43G	0.138
A16G U20C	0.128
A16U G68U	1.18
A16C G80C	0.201
A16C G80U	0.171
C15A U46G	0.383

Variant	self-cleavage
A16G C21U	0.0615
A16C U47A	0.688
C15G G40A	0.762
C15G G40U	0.354
A16C C63G	0.633
A16G C30U	0.665
A16C G52A	0.751
A16C G52U	0.643
A16C G52C	1.04
C15A U60G	0.731
A16G A45C	0.506
C15A G80A	0.831
A16C C61U	0.798
C15U C61G	0.898
G17A A78G	0.262
G17A A78U	0.242
C15U G39A	0.151
C15U G39C	0.0639
C15U C26A	1.05
C15G C58A	0.437
A16G C22A	0.199
A16G C22G	0.185
A16G C33U	0.802
A16C G25C	0

Variant	self-cleavage
C15A G67C	0.782
A16U C26A	1.05
C15G C57A	0.703
C15U C85U	0.906
C15U C85A	0.962
C15U C18U	0.44
C15G C63G	0.475
C15G C63U	0.394
C15A G28A	0.136
C15A C24G	0.032
A16U A77U	0.511
A16U C63A	1.08
A16U C63U	1.14
C15U A77C	0.185
A16U C30U	0.68
A16U C30G	0.119
A16G U46A	0.646
A16U A83G	0.567
A16U A83U	0.584
A16U G39U	0.403
A16U G39A	0.32
A16G A77C	0
A16G G29U	0.0354
C15A U23A	0.604

Variant	self-cleavage
C15A U23G	0.185
C15G G68C	0.511
A16C C49A	0.609
A16C C49G	0.923
A16C C49U	0.617
A16U A71C	0.942
A16C C57A	0.852
C15G C21G	0
C15G C21A	0.0707
C15G C21U	0.0405
C15U A45C	0.277
C15G U47A	0.723
A16C C19U	0.266
A16U G76A	0.939
A16U G76C	0.973
C15G G73C	0.231
C15A U37C	0.665
C15U C64A	0.636
A16U G80C	0.145
A16U G80U	0.41
C15U G29U	0.0594
C15U G29A	0.154
C15U C24U	0.717
C15A G35A	0.405

Variant	self-cleavage
C15A G35C	0.138
C15A C33A	0.256
A16U G25A	0.0707
A16U G25U	0.166
A16G G25U	0.0875
A16G G25A	0.192
A16U G28A	0.0475
A16G G39U	0.582
A16G G17A	0.617
A16C G82A	0.72
C15U C30G	0.0707
A16C U37A	0
A16C U37G	0.0923
A16C U37C	0.831
G17A C24G	0.0791
A16C A78U	0.256
A16C A78C	0.166
A16U C18A	0.107
C15A G54A	0.504
C15A G54U	0.585
A16U C58G	0.807
A16C A70C	0.731
C15G U23A	0.68
C15G U23C	0.332

Variant	self-cleavage
A16U C86G	0.853
A16G C62U	1.13
A16U G74U	0.394
A16G C86A	0.76
A16G C86U	1.2
A16G C86G	1.2
C15G G76U	0.831
C15G G59C	0.767
C15G G59A	0.831
A16C G34A	0.18
C15A G39A	0.095
A16U U69G	1.16
A16U U27G	0.665
G17A A51G	0.782
G17A A51C	0.755
G17A A77C	0.0978
G17A A77G	0.295
A16G U27A	0.703
A16U A45U	0.831
A16U A45C	0.462
A16U C22U	0.612
A16U C22G	0.161
A16G U72C	0.831

From the RNAGym collection of RNA variant scans (doi:10.7554/elife.80360)
